Assay results from patent US20210355194A1.
Where a chain is given by its changes, count along the chain named.

Target: COVID S1 RBD Fc fusion (Antigen 1) (SARS-CoV-2), P0DTC2
Test: phage ELISA
Conditions: remark: other sources report otherwise

B1: SARS-CoV-2 variant 1-49 (antibody)
chain 1: EVQLLESGGGLVQPGGSLRLSCAASGFTFSSYAMYWVRQAPGKGLEWVSAISGSAGSTYYADSVKGRFTISRDNSKNTLYLQMNSLRAEDTAVYYCARDTNDFWGQGTLVTVSS
chain 2: QSALTQPASVSGSPGQSITISCTGTSSDIGSYNLVSWYQQHPGKAPKLMIYEGTKRPSGVSNRFSGSKSGNTASLTISGLQAEDEADYYCCSYAGSRTYVFGGGTKLTVL
- ELISA fold over background: 1 fold

B2: SARS-CoV-2 variant 1-32 (antibody)
chain 1: EVQLLESGGGLVQPGGSLRLSCAASGFTFSSYAMYWVRQAPGKGLEWVSAISGSGGSTFYADSVKGRFTISRDNSKNTLYLQMNSLRAEDTAVYYCTRPPYGDYGDYWGQGTLVTVSS
chain 2: QSALTQPASVSGSPGQSITISCTGTSSDVGGYNLVSWYQQHPGKAPKLMIYEGNKRPSGVSNRFSGSKSGNTASLTISGLQAEDEADYYCCSYAGSSTFPVVFGGGTKLTVL
- ELISA fold over background: 1.5 fold

B3: SARS-CoV-2 variant 1-4 (antibody)
chain 1: EVQLLESGGGLVQPGGSLRLSCAASGFTFSSQAMSWVRQAPGKGLEWVSAISGSGGGTYYADSVKGRFTISRDNSKNTLYLQMNSLRAEDTAVYYCAKDRRFGEFDPWGQGTLVTVSS
chain 2: QSALTQPASVSGSPGQSITISCTGTSSDVGTYNLVSWYQQHPGKAPKLMIYEGSQRPSGVSNRFSGSKSGNTASLTISGLQAEDEADYYCCSYAGSSSFVVFGGGTKLTVL
- ELISA fold over background: 1.4 fold

B4: SARS-CoV-2 variant 1-3 (antibody)
chain 1: B3 chain 1
chain 2: B3 chain 2 with T25I, T31S, S54T, Q55K
- ELISA fold over background: 1.8 fold

B5: SARS-CoV-2 variant 1-5 (antibody)
chain 1: B3 chain 1
chain 2: B3 chain 2 with D28G, T31S, G53A, Q55K, S97Y, S98T, V100A
- ELISA fold over background: 1.6 fold

B6: SARS-CoV-2 variant 1-28 (antibody)
chain 1: EVQLLESGGGLVQPGGSLRLSCAASGFTFSSYGMSWVRQAPGKGLEWVSAISGSGGGTYYADSVKGRFTISRDNSKNTLYLQMNSLRAEDTAVYYCASSSSWQFDYWGQGTLVTVSS
chain 2: B3 chain 2 with D28G, T31S, S98T, F99H, V100Y
- ELISA fold over background: 1.1 fold

B7: SARS-CoV-2 variant 1-31 (antibody)
chain 1: B2 chain 1 with Y35N
chain 2: B3 chain 2 with T31K, S97R, S98T, F99P
- ELISA fold over background: 1.3 fold

B8: SARS-CoV-2 variant 1-30 (antibody)
chain 1: B2 chain 1 with Y35T
chain 2: B3 chain 2 with S27R, T31S, S54T, Q55K, S97R, S98T, F99P
- ELISA fold over background: 1.7 fold
